# Source: the domain aggregation screens of Martell et al. (2025)
# Assay: soluble fraction after stress (log2 fold change); higher = more stays soluble; pooled small domains, quantitative proteomics
# Settings: stress: 75 degC
# 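Also: 20 min heating vs room temperature control held 20 min.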
row,Sequence,soluble fraction (log2)
1,HMHQKELLNLSYKEAKRYILDDFERVFFTNLLRKTGGNVSRAAQLAQVHRKNLYVKLTELGIDPRQFG,-1.53
2,HMHQLQLDSRSRLHMTGVIEVESFDEATIVLTTTRGTLIVRGENLHLQLLRLDGGEVLVDGTVDSLSYE,-2.67
3,HMHQPPDLDDFEAFVGRVKPALLQALVATYGPVDGREATVDALSWAWEHWDRLADVDHPVGYLYRV,-0.0172
4,HMHRFAVLDTVREVAAGGVAATLSIGVGRDADSFDALFKNASMALEMALSRGGDQAVVKDRMNFQFYGG,0.153
5,HMHRGEIVDGVIASVNPRSILIDIGGKSDALVHPRELERMSDEDLRSLKPGQDVSVYVIETDSDGTMLVSL,0.0809
6,HMHSEISGGSKDPFRFMPHLGVEDIHAETDRLSGSGVEFIREPDQESWGGWVATFKDPDGNILQLLQL,0.197
7,HMHSQVFTDPDKAKNAVVKLGAPLVVKADGLALGKGVIIAQNPQAAKEAVASVGSSGISSISVT,0.126
8,HMHTDDDGITEAFPHLRLLSLGEDILDLLEKSRFIRKLNNELVYYVVDFREQNSIDGRRYHPSIYHNL,-0.437
9,HMHTGEVVNGKVIDVKEDQIILNVGFKSDGIITRSEYSNDNSLDLRTVVNVGDDMEAKVLKINDGEGQVLL,-0.242
10,HMHTGLAELTDRERDVLRLIATGMTNAAIGSALAYSPSTIRADTVSIYRKLEVRGRAEAAAVAVAAGLTQP,-1.72
11,HMHTPSGALLSAIEKEWGSFDNFKKEFTTAATSLFGSGWVWLAKDKKGKLYILSENNAGNPITKGYTPILG,-0.359
12,HMHVLNEEYYNRIKAIQFTMNHDDGNSLNDIEKSDIILLGVSRTSKTPTSIYLANRGLRTSNIPLINEK,-0.655
13,HMHVSLADQAYKTIRTNILNLTYPPGTQLTEAKLASDLNMSRSPVRTAIKMLQADGLLVSDYYKSMTVK,-1.21
14,HMHVYSYPAAVKIKNAVGREMMVTLLGRSGTHVQFARQDGEEFVYPISSLDLAAQTLISKYPNDGIKN,-0.895
15,HMIAALEGKQAMVLDQVSLHHGQVKLGGEVWTARPLNDQDVYEPGDRVTVMRIDGATAVVWRN,-0.472
16,HMIAASPVGGIDRVLELLDARGQRVAWIEASGTEGGQRLRLGWIDAQGAERHGAWVPWSADDLLLYA,-0.739
17,HMIAASQVLRDARQRSRLTQAELGRRADVPQSVISAYESARREPSVDMLARLVAAAGFDLRIGLTP,-0.755
18,HMIADPLVINKLMDSMALAINDYNPDSVEPVLDELRQYFSENQLRELSKAMDDFDFDEALNALTLLRT,-0.185
19,HMIALKNLREEKRMTQAELSKDLEISPSAIGMYEQGRRVPDVSTLKKISAYFNVSIDYLLGNSTSKDI,-0.626
20,HMIALLRLGTAPDIKAQAPLATILARHNGEMSAKDLWQRFGGEIDTFYAQLKTEVAHGWILEPT,-2.34
21,HMIAVLKQGVSKQQVENLITWFRSRGLDVHISEGKFQTIIGLIGDTSKVDIDLLNGLEIIESVKRI,-0.344
22,HMIAVSQEQIKQIIVDDPSFHDANGKFSQALLTQYLNQRRMSEDQFVEEIRDQFLFQNLQNLVQNG,0.278
23,HMIDAAHLEKAILSLPEGARAVFVLIETEGFAHREVAELLGISEGTSKSQLNYAKKRLREILV,-0.266
24,HMIDAKTTLQELTQKSGKKPEYRLIKIEGPDHLRRFTVEVFIDGQSMGTGTGHSKKEAEQNAANFALKNLQ,-0.00455
25,HMIDEQDLKKYILISTSVEELTDYLGATDRMLYDYLYSLKHVGQYWQLNERFLLDLYKLPNLVIVDKEDLE,-0.172
26,HMIDFDEQGNLWVHEMGPRHGDELNLIEKARNYGYPTVSQGDHYSGVKISNHEDIPIFKSPEKAWVPAISP,-0.228

row,Sequence,soluble fraction (log2)
1,HMIDFDHADIERLWNSIIHYVPERQKLDFAIDFIKSLEDIGVEHDVLRGSAELDPKLEEAVNTVFE,-0.725
2,HMIDIIEYIISEESKGLRADQGIALQNPQYSRSLIQKWIKKGSVLVNNKIIRTKEILLEGDKISITPEENI,-0.546
3,HMIDKIRYPELIMKLAHQQGGTIKRRDVEQLLHLQTKQAYRELSKLVDAGELVSVGRGPGAHYEVS,-0.316
4,HMIDQNEDLLSGYIDEVLSQNPDKVNEYLKGKSGLIGFFMGQIKQKSATALDAALLKSQLETALEKLRIK,-0.14
5,HMIDQSVVVQYLSKLTNTPYLKTREITMGEPYMQFERGEIKFQEYVEDIRALLPGGDRIDADRLRDIWMNS,-1.1
6,HMIDRADLWEALRKLPEDTLKLFSLHFEKGMTHDEISKHTDIPVGTVKTKLRRGLIEARKLAREF,-1.28
7,HMIDTPQELARLLRLLDEQNFEAEILFHKLRPDLLHLWSKEHVTRIAEALDAFDYQMALTLLNASP,-2.43
8,HMIDVNLVQRGKTLHLRRRVPMRYSSVERREYVSISLKTDSEAEARRKAGAAWDQMIAAWEARLA,-0.382
9,HMIDYTDTSAVKDSAAVAGRVREMINEGVPIADVNAFIRSASENGLISDDSARRLRYMNDSR,-0.0436
10,HMIEDMTINIEERLSLNGDIKKSEYILQYIKPDFIRKVILSPELNKGEIYIYDSKKKVMYLPLFDQVSEEI,-0.355
11,HMIEINNLEDLKLMKEFILKNGKYGFGVFVGGKYIGLSDIGSVNSFKDTLGLPVVSLGNDDFKRFTEAH,-1.07
12,HMIEQEQAFLEQVLKKYSQEELVLTVGSRTLVKYSAGQLERLLEHYPHVRLASSPVNGEAGFLLSRG,-0.0614
13,HMIEQIELEARVPDELGGQRLDQVAAQMFDDFSRSRLTGWIRDGSLTADGQQLRPRDIVYGGTLLQLKAEQ,0.132
14,HMIESFQNGLVEHDQFTRPNPWVTPNFSKIEVPSILLSGKHADIDLWKHQNSIENTKKNRPDLFKNYLKKN,-0.149
15,HMIEYILDYLANRGVYAASQGEQQQMEDGIARYLQENGLEDGNTGAYYQKYVSNHLQQISASDLKAYFLN,-0.946
16,HMIEYYDDEELDVFKGRQSDNYTNKEIEQFAEVLHTMRQDEVKGWNRSLILRSINLPDSLKDEVIMLI,-0.568
17,HMIFDPTTLPEKQLLVYGIISSHPGLNAKQISEMLTLKKSSIETAIKGLRKKEIIEYEGTTRNGG,-0.267
18,HMIFEEDILKEFRGSLIFITHDRRFLDNIATRIIELDRGKLLSFPGNFSAYKKAKNEQLANEAVENA,-0.439
19,HMIFEETVFKDIAFGPKNMGLSEAEIKRRVYETAENIGLSQELMERSPFELSGGQKRRVAIAGVMAMEP,0.268
20,HMIFELDSDRASAGNTIGKLVSKWNNTEVASVQFVSGDDTSNKDNASIYLNTRSGGSGNLVRLRITK,0.429
21,HMIFRPALITDLDAVERHYTELLTREAETGRSSTNWSLGVYPTRQTATAAQAAGTLWVLEREGQVVASVI,-0.0961
22,HMIFTPNGDRVNDVFEIEMGVKLEFQIIILNQQNQTVFKSADPDFKWDGTMLNGEPAPSGTYLYYFSAKD,0.207
23,HMIGERIKRARAAAGLSMQALGKQVGISANMVKKYEHDQSMPSSGVLLKLATALSVRTEYFFRPA,-1.38
24,HMIGGASVFKQFLPLADKMLLTLIHSEFEGDTYFPVFSEKEWLLQESSSLLSATGYQLSFQTYIR,0.0107
25,HMIGGEDEILKVVLEVLEEKPEAIEQYKNGRTNIVDFLVGQVMKKTRGQANPATTREFMIREIEK,-0.522
26,HMIGKDLLGYEVFSESGDLVGILKDVMWLPHSDVYVITNGGKELLIPVIPEVVKGINHEQGVIVISPM,0.394

row,Sequence,soluble fraction (log2)
1,HMIGPYAAAKLMTNKDFVKWLSGGVEKSVFNPNSFGQHIRRLVQISEVNPDIRDEINAVVQGLTQ,-0.445
2,HMIGRIKGQLIEKKSDSVVIDVHGIGYVVYVTEKTARSLTLGDQSRDISLYSELLVKEDLLQLVGFI,-0.075
3,HMIGRRLKVARASAGLSLRELAARMDGVVTPQAIGKYERNEDMPGSRALMALASALGVSEGYLLSD,-1.38
4,HMIHDSAESVVFPFGKYKGYTLAHVIREHPHYTYWIRDNADFSPLWREAVSLALQNRDIGHLNLPHVK,-0.222
5,HMIHMNMGQKINQLRLQKGFTLEELGNLVGVGKSTVRKWENGMIANMKRDKILLVAEALDTSPAYLMGWD,-2.12
6,HMIIENIVVEIKGEVYNPGLYILEQGSRINDLIELSGGFTKDANGTDLNLAKVLSDGEVIIVSKKG,-1.29
7,HMIIIMKPNASEEAVRKVTHIIESKGLQVHLSKGSQVTIVGVVGDKTRLQGSNIEISEGVDKVVAVT,-1.22
8,HMIILDASASRAIGNGTIEETKWDFGNGESSTNRGGPIVERQIYANQAAYILKLSMKTNDGQLFTKEIQLL,0.162
9,HMIINKFERRKEIQIQFNNQERIKFKDFFLNLSKENIIVSFLILLELVRESLIDFSGTNENDIEFFIK,-2.38
10,HMIITTPYKVTASAINIRSGRGTSYSIIGTVSKGQTVDVYNNSLSKGWVKVKFSGSVGYAYAKYLEK,-1.62
11,HMIIVMSANANAREISEVIARIRAMGYDVHLSHGKERTIIGVIGRGTPIDREQLSLMSGVQQVMPV,-2.44
12,HMIKIEDILNVESVELSDSEYKKFLNGILINVKNLENGWAKVYSGNEFKGFGIVDKNLLKRKIVID,-1.49
13,HMIKIEDYTNKDYNKVEASLEVKGLVVNIEYKAVDDKAKYKGKEDLIIDQSVKKDATLVKGDTIILYLPK,-1.21
14,HMIKISDYLSEEDLNFIKEMEKIYPYFDFDSEGNLILTKSIDELKDKYGFDEAFVSRLDTVLNSR,0.108
15,HMIKITLGWVISVRRHDLGYTQHKMARAVGISDLTVSRIESDDGITPDNNTLRKIAEYLKIDYNSLLTLK,-1.37
16,HMIKLIKKDTNISELKMSKMPWDVMLYGKPYQVVSIKGYVHTIGGRRGENDLWMYPRDESPTYENLIEFQ,-2.19
17,HMIKNKDRIQYTLAHRKAFRKIEKELLGYNTFRSLFHDLDKVFLYPFFDYKKVHNFHRNHAHH,0.132
18,HMIKRETNDNPVDPASLSLGDRVKILTLNQNGEIISLPDEKGLLQVQVGIMKIGVNVSDIMLI,-0.9
19,HMIKRITDEQHPVDVDRLLVVTFTNAAASEMRERIGDAIEAALEKDPYNQHLQRQLTLVHNAQITTIDS,0.171
20,HMIKSEERIQNIKEYILEFQFTYHRTPTMAQIAEAVGTVKSNVYKYLSEMEERGILTRNKREIEINDTIQ,-0.807
21,HMIKSMTGYGSAKGTVEGIEVSVELKSVNNKFLDTSIRLPRSFLFAEETIKQAVSSHISRGKVDVFVSVDS,0.587
22,HMIKYTIEELGELTGFTRRTIRYYVQEGLIDPPAGRGRGGFYYDSHVQQLLRIKSFQEKGIGITAMVSLM,-2.32
23,HMILEEIIGKNIARYREAAGLTQATLAEKIGISTAFVSRVERGQKKMKVETLYATAKVLNVSVDALLS,-2.61
24,HMILKNVPSNLVNQRLDKVATVLFQTYSRTQIKKWILEGRLLVNGEISNPKDLVNENDEIEINPI,-2.95
